Consider one molecule from US20220119534A1 (DRAGONFLY THERAPEUTICS, published 2022).

What is called Kd is the concentration at which binding is half-saturated.

Numbering of substitutions follows the chain as printed. In names and notes the source's numbering stands.

Experiment [1] deals with T1, Human CLEC12A expressed on cells (Ba/F3-hCLEC12A, PL21, HL60) (human, UniProt Q5QGZ9 1-265).
T1 sequence: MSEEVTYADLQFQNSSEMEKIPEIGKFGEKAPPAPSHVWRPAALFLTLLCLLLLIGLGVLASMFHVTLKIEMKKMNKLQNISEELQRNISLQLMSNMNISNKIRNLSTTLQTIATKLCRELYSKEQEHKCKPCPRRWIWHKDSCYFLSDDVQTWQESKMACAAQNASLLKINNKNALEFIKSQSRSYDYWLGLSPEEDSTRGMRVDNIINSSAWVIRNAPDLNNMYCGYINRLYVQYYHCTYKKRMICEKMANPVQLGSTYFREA
The experiment can be described thus: cell-based or functional assay.

The target in experiment [2] is T2, Human FcRn (human, UniProt P55899 24-297; P61769 21-119).
T2 construct: Bought recombinant receptor; also called hFcRn
T2 sequence (P55899 24-297 limits assumed, chain 1 of 2): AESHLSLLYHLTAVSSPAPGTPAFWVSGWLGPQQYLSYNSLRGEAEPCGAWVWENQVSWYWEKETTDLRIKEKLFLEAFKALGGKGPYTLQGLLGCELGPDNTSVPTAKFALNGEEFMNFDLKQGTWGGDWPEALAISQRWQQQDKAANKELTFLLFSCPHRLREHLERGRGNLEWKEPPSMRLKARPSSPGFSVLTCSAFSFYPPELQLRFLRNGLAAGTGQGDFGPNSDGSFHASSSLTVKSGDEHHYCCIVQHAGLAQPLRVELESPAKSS
T2 sequence (P61769 21-119 limits assumed, chain 2 of 2): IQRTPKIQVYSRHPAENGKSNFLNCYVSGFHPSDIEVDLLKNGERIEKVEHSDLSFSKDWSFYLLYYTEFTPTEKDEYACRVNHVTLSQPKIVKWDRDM
The experiment can be described thus: SPR 25C, pH 6.0, FcRn on chip, steady state fit.
Procedure: Recombinant human or cynomolgus monkey (cyno) FcRn was captured on a surface of an SA series S chip at a concentration of 0.25 μg/mL for 1 minute. […] Each FcRn binding experiment consisted of multiple cycles utilizing varying concentrations of analytes. […] 0 nM blank cycle placed at the start of each concentration series and a blank amine coupling modified chip surface lacking FcRn were used for referencing. Each experimental cycle included association, dissociation and regeneration steps. The association step consisted of 60 sec analyte injection and was followed by a 60 sec dissociation step. Surface regeneration (60 sec injection of HBS-EP+ buffer, pH 7.4) completed each kinetic cycle. All steps were executed at a flow rate of 30 μL/min and at 25° C. MBS-EP+ buffer, pH 6.0 was used as a running buffer. The data were fitted to a steady state affinity model with Biacore Insight evaluation software. Chi² (calculated by the software) related to the calculated Rₘₐₓ was used to assess goodness of the fit. All reported values were rounded to one decimal place.

The target in experiment [3] is T3, Human CLEC12A-K244Q-His (human, UniProt Q5QGZ9 65-265).
T3 construct: also called hCLEC12A (Q244); CLEC12A (Q244); not shown: His tag
T3 chain: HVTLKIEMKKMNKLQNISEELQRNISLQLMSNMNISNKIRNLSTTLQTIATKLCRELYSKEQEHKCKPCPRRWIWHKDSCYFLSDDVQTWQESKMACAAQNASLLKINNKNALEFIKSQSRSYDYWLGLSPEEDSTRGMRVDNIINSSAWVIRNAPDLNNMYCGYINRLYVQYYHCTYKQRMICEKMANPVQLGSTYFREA
As to the kind of experiment: SPR, two-state fit. A general note: In SPR one partner is held on a chip, and binding of the other changes the refractive index at the surface.

For experiment [4], the target named is T4, Human CLEC12A-His (recombinant, K244 WT) (human, UniProt Q5QGZ9 65-265).
T4 construct: Made in house (Dragonfly Tx); also called hCLEC12A; hCLEC12A-His; not shown: His tag
T4 sequence: T3 chain with Q180K
As to the kind of experiment: SPR, two-state fit.

For experiment [5], the target named is T4, Human CLEC12A-His (recombinant, K244 WT). As to the kind of experiment: SPR 37C, two-state fit, average.
Procedure: Briefly, human Fc specific antibodies were covalently immobilized at a density ˜8000-10000 resonance units (RU) on carboxy methyl dextran matrix of a CM5 biosensor chip via amine-coupling chemistry to create an anti-hFc IgG chip. […] Association was monitored for 300 seconds and dissociation was monitored for 600 seconds. Surfaces were regenerated between cycles with three pulses of 10 mM glycine-HCl, pH 1.7 injected for 20 seconds at 100 μl/min. HBS-EP+ (1×) with 0.1 mg/ml BSA was used as running buffer throughout the experiment. Experiments were performed at physiological temperature of 37° C. To obtain kinetic rate constants and overall binding affinity, double-referenced data were fit to a two-state kinetic model using Biacore 8K Insight Evaluation software (Cytiva).

B1: AB0089 TriNKET (bispecific antibody, human IgG1, kappa)
chain: QLQLQESGPGLVKPSETLSLTCTVSGFSLTNYGLHWIRQPPGKCLEWIGVIWVGGATDYNPSLKSRVTISVDTSKNQFSLKLSSVQAADTAVYYCAKGDYGDTLDYWGQGTLVTVSSGGGGSGGGGSGGGGSGGGGSDIQMTQSPSSLSASVGDRVTITCHASQNINFWLSWYQQKPGKAPKLLIYEASNLHTGVPSRFSGSGSGTDFTLTISSLQPEDFATYYCQQSHSYPLTFGCGTKLEIKGSDKTHTCPPCPAPELLGGPSVFLFPPKPKDTLMISRTPEVTCVVVDVSHEDPEVKFNWYVDGVEVHNAKTKPREEQYNSTYRVVSVLTVLHQDWLNGKEYKCKVSNKALPAPIEKTISKAKGQPREPRVYTLPPCRDELTKNQVSLTCLVKGFYPSDIAVEWESNGQPENNYKTTPPVLVSDGSFTLYSKLTVDKSRWQQGNVFSCSVMHEALHNHYTQKSLSLSPG
heavy: EVQLVESGGGLVKPGGSLRLSCAASGFTFSSYSMNWVRQAPGKGLEWVSSISSSSSYIYYADSVKGRFTISRDNAKNSLYLQMNSLRAEDTAVYYCARGAPIGAAAGWFDPWGQGTLVTVSSASTKGPSVFPLAPSSKSTSGGTAALGCLVKDYFPEPVTVSWNSGALTSGVHTFPAVLQSSGLYSLSSVVTVPSSSLGTQTYICNVNHKPSNTKVDKKVEPKSCDKTHTCPPCPAPELLGGPSVFLFPPKPKDTLMISRTPEVTCVVVDVSHEDPEVKFNWYVDGVEVHNAKTKPREEQYNSTYRVVSVLTVLHQDWLNGKEYKCKVSNKALPAPIEKTISKAKGQPREPQVCTLPPSRDELTENQVSLTCLVKGFYPSDIAVEWESNGQPENNYKTTPPVLDSDGSFFLYSWLTVDKSRWQQGNVFSCSVMHEALHNHYTQKSLSLSPG
light: DIQMTQSPSSVSASVGDRVTITCRASQGISSWLAWYQQKPGKAPKLLIYAASSLQSGVPSRFSGSGSGTDFTLTISSLQPEDFATYYCQQGVSFPRTFGGGTKVEIKRTVAAPSVFIFPPSDEQLKSGTASVVCLLNNFYPREAKVQWKVDNALQSGNSQESVTEQDSKDSTYSLSSTLTLSKADYEKHKVYACEVTHQGLSSPVTKSFNRGEC
notes: F3' format heterodimer of three chains; human IgG1 Fc with EW-RVT and Y349C/S354C mutations; also called AB0089 Lot AB0089-002; CLEC12A TriNKET AB0089
Take B1: the “EC50, primary NK mediated cytotoxic killing of PL21 cells” value in experiment [1] amounted to 0.35 nM. Moreover, the Kd is 1100 nM in experiment [2], 1.17 nM in experiment [3], 0.6 nM in experiment [4] and 0.74 nM in experiment [5].
